The target in this experiment is 小菜蛾钙黏蛋白毒素结合区(PxCad-TBR) (小菜蛾 (Plutella xylostella)). Kind of experiment: competitive ELISA on coated PxCad-TBR, 500 μg/mL Cry2Aa, competitor 2G4 (3.75 μg/mL, molar ratio 294:1).

Take “活化Cry2Aa毒素(分子量68 kDa) (from UniProt P0A377 50-633)”: the 抑制作用 (%) was determined as 44%.

The values above are taken from patent CN113150161A.
